Assay results from patent publication US20240361328A1.

Tests used:
[1] = target: anti-CD19 CAR (clone FMC63), second-generation, C-terminal meGFP (human) (UniProt P01732); test: magnetic selection with APC-labeled multimer and anti-APC magnetic particles, 'Low Clone'
[2] = target: anti-CD19 CAR (clone FMC63), second-generation, C-terminal meGFP (human) (UniProt P01732); test: flow cytometry staining titration, dose-response fit
[3] = target: anti-CD19 CAR (clone FMC63), second-generation, C-terminal meGFP (human) (UniProt P01732); test: magnetic selection with APC-labeled multimer and anti-APC magnetic particles, 'Mid Clone'
[4] = target: anti-CD19 CAR (clone FMC63), second-generation, C-terminal meGFP (human) (UniProt P01732); test: cell-based or functional assay
[5] = target: anti-CD19 CAR (clone FMC63), second-generation, C-terminal meGFP (human) (UniProt P01732); test: flow cytometry staining titration, αCD19-CAR-transduced Jurkat cells
[6] = target: anti-CD19 CAR (clone FMC63), second-generation, C-terminal meGFP (human) (UniProt P01732); test: flow cytometry spike-in assay, 'Low Clone' and 'Mid Clone' anti-CD19 CAR-meGFP cells among mCherry non-CAR cells
[7] = target: anti-CD19 CAR (clone FMC63), second-generation, C-terminal meGFP (human) (UniProt P01732); test: flow cytometry staining titration, anti-CD19 CAR-transduced Jurkat cells
[8] = target: anti-CD19 CAR (clone FMC63), second-generation, C-terminal meGFP (human) (UniProt P01732); test: flow cytometry staining titration, CAR-transduced Jurkat cells
[9] = target: anti-CD19 CAR (clone FMC63), second-generation, C-terminal meGFP (human) (UniProt P01732); test: flow cytometry specificity staining, matched CAR cells
[10] = target: anti-CD19 CAR (clone FMC63), second-generation, C-terminal meGFP (human) (UniProt P01732); test: flow cytometry spike-in assay, 'Mid Clone' at 10%

percent of CAR+ cells retained in the column [1] [%] | fold staining efficiency (1/EC50) against anti FMC63 antibody [2] [fold] | percent of CAR+ cells retained in the column [3] [%] | CAR-T cells as percent of total cell population (49% without multimer) [4] [%] | CD69+CD25+ cells in CD4+ CAR-T cell sub-population (17% without multimer) [4] [%] | CD69+CD25+ cells in CD8+ CAR-T cell sub-population (5% without multimer) [4] [%] | PD-1+ CAR-T cells in CD4+ CAR-T cell sub-population (25% without multimer) [4] [%] | PD-1+ CAR-T cells in CD8+ CAR-T cell sub-population (2% without multimer) [4] [%] | percent of CD19 CAR-expressing cells detected at saturated concentrations [5] [%] | sensitivity [6] [%] | efficiency of detection against antigen-monomer [7] [% higher] | percent of target cells detected at the maximum concentration [8] [%] | percent of CAR-expressing cells detected [9] [%] | percent of cells detected [10] [%] | Substance
35 | 40 | 55 | 70 | 28 | 38 | 25 | 6 | 90 | > 90 | 25 | > 92 | > 90 | – | CD19 antigen-dodecamer (from UniProt P22629 37-163)
35 | 8 | 55 | 61 | 26 | 28 | 26 | 6 | 93 | > 90 | 25 | > 92 | > 90 | – | CD19 antigen-streptavidin tetramer (from UniProt P22629 37-163)
– | – | – | – | – | – | – | – | – | – | – | – | – | 90 | Protein L (Thermo Fisher Scientific, 29997)
